A short description of assay [1]: ICV injection, food intake in 24-h fasted rats (studies 1a, 2a). It is filed as in vivo, rat. The conditions noted are these: study 1a; 3 nmol ICV; 24-h fasted rats; vs saline. An excerpt: (§1) Animals had permanent stainless steel guide cannulas (Plastics One, Roanoke, Va.) stereotactically implanted ICV or iPVN.
The nature of assay [2]: iPVN injection, food intake in 24-h fasted rats (studies 1b, 2b). The assay is classed as in vivo, rat. The following applies: study 1b; iPVN; OXM, GLP-1 (3 nmol [sic]), exendin-4 0.03 nmol, glicentin, glucagon 1 nmol, SP-1 3 nmol; fasted rats. The procedure: as §1
Therefore, exendin-4 was injected iPVN at a dose of 0.03 nmol.

B1: glicentin (peptide, UniProt P01275 21-89, looked up)
Glicentin: RSLQDTEEKSRSFSASQADPLSDPDQMNEDKRHSQGTFTSDYSKYLDSRRAQDFVQWLMNTKRNRNNIA
modifications: Glicentin
notes: proglucagon-derived peptide purchased from Peninsula Laboratories
Regarding B1, the “refeeding (food intake) after ICV injection” value in assay [1] is “failed to affect food intake at any time point”. The “refeeding (food intake) after iPVN injection” value in assay [2] is “failed to affect food intake at any time point”.

For the origin of these results see patent publication US7666835B2 (Imperial Innovations Limited, priority 2001, dated 2010).
